Laboratory results published in publication PMC13495755 (Journal of the American Chemical Society, 2026).
One block for each molecule: values may come before it. The star is where a group is joined. 5FAM = O=C1OC2(c3ccc(O)cc3Oc3cc(O)ccc32)c2ccc(C(=O)*)cc21; Ahx = NCCCCCC(=O)O

Assays:
MCL-1 = MCL-1 (UniProt Q07820); experiment: fluorescence polarisation; direct FA titration of the labeled BID peptide with BCL-xL or MCL-1
BCL-xL = BCL-xL (UniProt Q07817); experiment: as above
MCL-1 (172-327) = target: T1, MCL-1 (172-327); experiment: fluorescence polarisation; competitive fluorescence anisotropy; target protein (BCL-xL or MCL-1) fixed at 150 nM, FAM-BID tracer fixed at 25 nM, competitor protein titrated in; FA buffer 20 mM Tris, 150 mM NaCl pH 7.4, 1 mM DTT, 0.01% triton x100 (legends: 20 mM Tris-HCl, 150 mM NaCl, pH 7.5); triplicate; logistic fit; details: both partners purified
T1 construct: MCL-1 residues 172-327 as labelled; source: E. coli BL21 DE3, purified (His-trap, SUMO tag removed with His-Ulp1, reverse His-trap, Superdex 75); not shown: His6, N-terminal, cleaved; SUMO, N-terminal, cleaved
T1 chain: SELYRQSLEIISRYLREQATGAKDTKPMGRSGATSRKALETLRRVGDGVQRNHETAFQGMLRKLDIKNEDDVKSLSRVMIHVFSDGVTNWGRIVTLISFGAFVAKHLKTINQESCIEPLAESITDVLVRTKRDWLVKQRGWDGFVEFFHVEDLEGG

BCL-xL (1-26 + 81-198) = target: T2, BCL-xL (1-26 + 81-198); experiment: as above; details: both partners purified
T2 construct: BCL-xL, first stretch of the loop-deleted construct; BCL-xL, second stretch; Loop between the two stretches deleted; no linker; source: E. coli BL21 DE3, purified (His-trap, SUMO tag removed with His-Ulp1, reverse His-trap, Superdex 75); not shown: His6, N-terminal, cleaved; SUMO, N-terminal, cleaved
T2 chain: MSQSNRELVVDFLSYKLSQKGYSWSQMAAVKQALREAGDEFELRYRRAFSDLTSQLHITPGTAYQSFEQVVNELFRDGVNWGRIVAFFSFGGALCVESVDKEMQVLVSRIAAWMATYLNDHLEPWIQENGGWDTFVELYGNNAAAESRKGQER

KLHL20 (303-605) = target: T3, KLHL20 (303-605); experiment: fluorescence polarisation; direct titration of the FAM-labelled tracer peptide with the target protein; FA buffer 20 mM Tris, 150 mM NaCl pH 7.4, 1 mM DTT, 0.01% triton x100
T3 sequence (Q9Y2M5 303-605, species assumed, looked up): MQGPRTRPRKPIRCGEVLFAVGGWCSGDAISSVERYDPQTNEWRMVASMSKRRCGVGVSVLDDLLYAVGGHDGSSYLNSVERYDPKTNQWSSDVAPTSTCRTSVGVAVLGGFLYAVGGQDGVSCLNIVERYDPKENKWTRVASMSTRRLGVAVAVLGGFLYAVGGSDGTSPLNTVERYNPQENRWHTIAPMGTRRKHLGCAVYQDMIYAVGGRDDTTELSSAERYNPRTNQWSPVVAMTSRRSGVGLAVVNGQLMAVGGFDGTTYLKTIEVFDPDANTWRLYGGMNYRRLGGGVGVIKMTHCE

[1] = target: T4, Kelch-like protein 20 (KLHL20) (UniProt Q9Y2M5 1-609); experiment: fluorescence polarisation; direct FA titration of the tracer with KLHL20; details: both partners purified
T4 construct: Kelch-like protein 20 (KLHL20), E3 ubiquitin ligase adapter; The functional rows use this molecule for KLHL20 of HEK293 cells; also called E3 ligase adapter
T4 sequence (looked up): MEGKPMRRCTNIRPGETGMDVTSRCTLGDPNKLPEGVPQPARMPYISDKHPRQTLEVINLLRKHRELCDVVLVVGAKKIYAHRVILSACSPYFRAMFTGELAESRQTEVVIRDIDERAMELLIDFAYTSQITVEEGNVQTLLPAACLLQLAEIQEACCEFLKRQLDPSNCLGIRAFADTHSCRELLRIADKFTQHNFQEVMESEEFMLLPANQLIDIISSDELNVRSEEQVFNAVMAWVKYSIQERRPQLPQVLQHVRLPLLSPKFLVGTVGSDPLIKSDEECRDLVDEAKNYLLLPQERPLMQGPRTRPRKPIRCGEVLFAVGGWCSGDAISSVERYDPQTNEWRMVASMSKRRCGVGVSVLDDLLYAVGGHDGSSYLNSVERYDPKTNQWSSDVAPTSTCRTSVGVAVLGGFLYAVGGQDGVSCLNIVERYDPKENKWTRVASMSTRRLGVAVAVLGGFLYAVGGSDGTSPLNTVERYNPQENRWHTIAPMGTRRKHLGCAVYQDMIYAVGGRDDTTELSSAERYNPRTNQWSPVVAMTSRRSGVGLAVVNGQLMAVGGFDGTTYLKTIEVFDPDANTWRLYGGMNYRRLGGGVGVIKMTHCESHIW

MCL-1, sequence (Q07820 whole entry): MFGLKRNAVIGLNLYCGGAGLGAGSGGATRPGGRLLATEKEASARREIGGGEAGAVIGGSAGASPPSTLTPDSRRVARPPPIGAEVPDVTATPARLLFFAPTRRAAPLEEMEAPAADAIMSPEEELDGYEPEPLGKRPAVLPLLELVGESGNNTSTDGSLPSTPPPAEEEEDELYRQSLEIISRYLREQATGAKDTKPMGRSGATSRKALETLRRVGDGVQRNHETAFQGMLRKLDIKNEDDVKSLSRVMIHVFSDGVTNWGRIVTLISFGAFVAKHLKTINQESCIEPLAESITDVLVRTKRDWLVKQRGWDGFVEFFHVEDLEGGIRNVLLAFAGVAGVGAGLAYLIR

- Kd (MCL-1): 21.5 nM
- Kd (BCL-xL): 71 nM
Molecule: BID, natural effector peptide, labeled competitor peptide

- IC50 (MCL-1 (172-327)): 500 ± 150 nM
- IC50 (BCL-xL (1-26 + 81-198)): 197 ± 10 nM
B1: Sc-apCC-2-BCL-xL-11 (designed binder)
chain: SHMGPELAALQAERDALEARLAELDREIAALEWRIPSDPRKKQLIGELLRLFGDRFDLERRIAELDAKIEALKNG
notes: de novo helix-loop-helix design against BCL-xL (Strategy 3, pAE); source: E. coli BL21 DE3, purified (His-trap, TEV cleavage, reverse His-trap, Superdex 75); not shown: His6, N-terminal, cleaved

- IC50 (MCL-1 (172-327)): 270 ± 20 nM
- IC50 (BCL-xL (1-26 + 81-198)): 212 ± 18 nM
B2: Sc-apCC-2-BCL-xL-12 (designed binder)
chain: SHMGPELERLEERRRELERELEELDREIAELEWTIKSDPRKKELIVKLRQLFGRRLRLMGDIFDLDVQIRRLREG

- Kd (KLHL20 (303-605)): 12200 nM
B3: FAM-DAPK1 (peptide)
peptide: {5FAM-Ahx}-LGLPDLVAK-NH2
SMILES: CC(C)C[C@H](NC(=O)CCCCCNC(=O)c1ccc2c(c1)C(=O)OC21c2ccc(O)cc2Oc2cc(O)ccc21)C(=O)NCC(=O)N[C@@H](CC(C)C)C(=O)N1CCC[C@H]1C(=O)N[C@@H](CC(=O)O)C(=O)N[C@@H](CC(C)C)C(=O)N[C@H](C(=O)N[C@@H](C)C(=O)N[C@@H](CCCCN)C(N)=O)C(C)C

- Kd [1]: 12000 nM
Molecule: {FAM-Ahx}-LGLPDLVAK-NH2 [tracer of the competitive FA-binding assay for KLHL20]
